Measured values taken from patent US20250011421A1 (GUANGDONG ANNPO BIOTECHNOLOGY, published 2025).

Assays:
[1] = target: T1, hTIGIT on the surface of 293F-hTIGIT-short #1B1 cells (human, UniProt Q495A1 22-162, limits assumed); test: flow cytometry on 293F-hTIGIT-short #1B1 cells
T1 construct: domain: extracellular domain and transmembrane domain; It is a truncated ('short') construct without the cytoplasmic part; also called 293F-hTIGIT-short cells; 293F-hTIGIT-short #1B1 cell line
T1 sequence (looked up): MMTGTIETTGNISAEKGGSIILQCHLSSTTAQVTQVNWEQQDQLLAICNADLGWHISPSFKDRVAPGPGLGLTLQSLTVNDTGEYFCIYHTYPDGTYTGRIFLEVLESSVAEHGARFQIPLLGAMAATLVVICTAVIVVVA
Procedure: (§1) The 293F-hTIGIT-short #1B1 cell line was digested, terminated, centrifuged, resuspended and counted, and the cell density was adjusted to 4×10⁶ cells/mL. According to 50 μL/tube, 20×10⁴ cells were added into 1.5 mL EP tubes. […] The blank group was added with 150 μL of PBS as a blank control. Gentle blowing and mixing were performed, and incubation was performed on ice for 1 hour. After incubation, 500 μL of PBS was added for centrifugal washing once, centrifugation was performed at 2000 rpm for 5 minutes, and the supernatants were discarded. A fluorescent secondary antibody was added (Alexa® 488 fluorescently labeled anti-mouse IgG antibody was diluted with PBS (diluted at 1:500) and added to the corresponding tubes in 200 μL/tube), gentle blowing and mixing were performed, and incubation was performed on ice in the dark for 30 minutes. After 30 minutes of incubation, signal detection was performed with a flow cytometer.

[2] = target: T1, hTIGIT on the surface of …; test: flow cytometry competition on 293F-hTIGIT-short #1B1 cells; competitor PVR-hFc at 6 µg/mL
Procedure: The 293F-hTIGIT-short #1B1 cell line was digested, terminated, centrifuged, resuspended and counted, and the cell density was adjusted to 4×10⁶ cells/mL. According to 50 μL/tube, 20×10⁴ cells were added into 1.5 mL EP tubes. […] 100 μL of PBS was added into the blank group. Gentle blowing and mixing were performed, and incubation was then performed on ice for 1 hour. After incubation, 500 μL of PBS was added for centrifugal washing once, centrifugation was performed at 2000 rpm for 5 minutes, and the supernatants were discarded. Alexa® 488 fluorescently labeled anti-mouse or anti-human IgG antibody was diluted with PBS (diluted at 1:500) and added to the corresponding tubes in 200 μL/tube, gentle blowing and mixing were performed, and incubation was performed on ice in the dark for 30 minutes. After 30 minutes of incubation, signal detection was performed with a flow cytometer.

[3] = target: T2, mouse-derived TIGIT protein (accession number: NP_001139797.1) (mouse, UniProt P86176 29-148, limits assumed); test: indirect ELISA, method as in Example 3
T2 construct: also called mouse TIGIT
T2 sequence (looked up): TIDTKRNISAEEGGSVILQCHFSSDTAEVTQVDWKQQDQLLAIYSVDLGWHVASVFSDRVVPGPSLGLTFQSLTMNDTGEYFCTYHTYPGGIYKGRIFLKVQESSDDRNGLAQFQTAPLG
Procedure: (§2) The plate was washed with PBST buffer for three times, 200 μL/well, and patted dry. 1% of BSA (dissolved in PBS) was then added, 200 μL/well, and the plate was incubated at 37° C. for 2 hours. After incubation, the plate was washed with PBST for three times, 200 μL/well, and patted dry. […] 100 μL was sucked with a multi-channel pipette, transferred into the ELISA plate, and incubated at 37° C. for 1 hour. After incubation, the plate was washed with PBST for three times, 200 μL/well, and patted dry. An anti-mouse IgG antibody labeled by HRP was diluted with 1% of BSA (dissolved in PBST) (diluted at 1:5000), 100 μL/well. Incubation was performed at 37° C. for 1 hour. After incubation, the plate was washed with PBST for three times, 200 μL/well, and patted dry. 50 μL of TMB chromogen solution was added into each well for chromogenic reaction, and the reaction time was 5 minutes in the dark. After 5 minutes of incubation, hydrochloric acid stop solution was directly added to stop the reaction in 50 μL/well. Absorbances at 450 nm (OD450) were detected by the light absorption mode of a microplate reader.

[4] = target: T3, hTIGIT-His protein (human, UniProt Q495A1 22-141); test: ELISA, hTIGIT-His coated at 0.5 µg/mL
T3 construct: Coated on the ELISA plate at 0.5 µg/mL; also called antigen hTIGIT-his protein; not shown: His tag
T3 sequence (looked up): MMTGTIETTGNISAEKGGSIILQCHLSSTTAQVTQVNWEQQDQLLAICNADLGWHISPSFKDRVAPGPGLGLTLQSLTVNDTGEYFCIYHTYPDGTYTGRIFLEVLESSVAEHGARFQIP
Procedure: as §2, with “The hTIGIT-his protein was diluted to 0.5 μg/mL with CBS buffer, coated in an ELISA plate in 50 μL/well, and left at 4° C. overnight. The” for “The”

[5] = target: T1, hTIGIT on the surface of …; test: flow cytometry competition on 293F-hTIGIT-short #1B1 cells; competitor 4.1D3 at 6 µg/mL, detected with anti-human IgG
[6] = target: T3, hTIGIT-His protein; test: ELISA on hTIGIT-His, method as in Example 3
Procedure: as §2, with “The hTIGIT-his protein was diluted to 0.5 μg/mL with CBS buffer, coated in an ELISA plate in 50 μL/well, and left at 4° C. overnight. The” for “The”

[7] = target: T1, hTIGIT on the surface of …; test: flow cytometry on cells expressing hTIGIT, method as in Example 3
Procedure: as §1
The method was the same as that in example 3.

[8] = target: T1, hTIGIT on the surface of …; test: flow cytometry competition on 293F-hTIGIT-short cells; competitor PVR (method as in Example 4)

B1: hTIGIT mouse-derived antibody m51C1 (antibody, V domains shown)
VH: QVQLQQSGAELVKPGASVKLSCKASGYTFTEYFIHWIKQKSGQGLEWIGWFYPGSGSIKYNERFKDKATLTADKSSSTVYMELSRLTSEDSAVYFCARHEMRYGNYVLDYWGQGTTLTVSS
VL: QAVVTQESALTTSPGETVTLTCRSSTGAVTTRNYANWVQEKPDHLFTGLIGGTNNRVPGVPARFSGSLIGDKAALTITGAQTEDEAIYFCGLWYSNHLVFGGGTKLTVLG
notes: Mouse monoclonal antibody from a hybridoma
B1 was tested, and the EC50 [1] was 0.811 µg/mL, the IC50 [2] was 1.35 µg/mL and the binding result [3] was “no binding”. For the same binder, the EC50 [4] was 0.00396 µg/mL and the IC50 [5] was 4.08 µg/mL.

B2: hTIGIT humanized antibody h60H5 (antibody, human IgG1, V domains shown)
VH: QVQLVQSGAEVKKPGASVKVSCKTSGYTFTEYTMHWVRQAPGQRLEWIGGINPNNGGTSYNQKFQGRVTITVDTSASTAYMELSSLRSEDTAVYYCARSGNWDYAMDYWGQGTTVTVSS
VL: DIQMTQSPSSMSASVGDRVTITCKASQHVSTAVVWYQQKPGKAPKLLIYSASYRYTGVPDRFSGSGSGTDFTFTISSLQPEDIATYYCQQHYITPWTFGGGTKLEIKR
notes: also called 60H5-H2L1
Binder B2 has an EC50 [6] of 0.006 µg/mL, an EC50 [7] of 1.57 µg/mL and an IC50 [8] of 2 µg/mL.

B3: hTIGIT humanized antibody h51C1 (antibody, human IgG1, V domains shown)
VH: QVQLVQSGAEVKKPGASVKVSCKASGYTFTEYFIHWVRQAPGQGLEWIGWFYPGSGSIKYNERFKDRVTLTADTSISTAYMELSRLRSDDTAVYYCARHEMRYGNYVLDYWGQGTTVTVSS
VL: QAVVTQEPSLTVSPGGTVTLTCRSSTGAVTTRNYANWVQQKPGQAPRGLIGGTNNRVPGVPARFSGSLLGGKAALTLSGAQPEDEAEYYCGLWYSNHLVFGGGTKLTVLG
notes: also called 51C1-H2L2
B3 gave an EC50 [6] of 0.007 µg/mL, an EC50 [7] of 2.98 µg/mL and an IC50 [8] of 5.21 µg/mL.
